Where a chain is given by its changes, count along the chain named. In names and notes the source's numbering stands.
T1: human FcγR2B (recombinant, extracellular domain only) (human, UniProt P31994 43-217)
T1 construct: extracellular domain; also called FcyR2B; FcgR2B
T1 sequence (looked up): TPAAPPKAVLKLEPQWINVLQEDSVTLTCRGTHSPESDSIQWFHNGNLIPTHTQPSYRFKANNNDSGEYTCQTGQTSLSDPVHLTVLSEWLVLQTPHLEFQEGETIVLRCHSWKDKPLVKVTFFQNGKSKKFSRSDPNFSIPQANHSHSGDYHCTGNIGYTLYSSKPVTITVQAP

T2: human FcγR2A 131H allotype (recombinant, extracellular domain only) (human, UniProt P12318 34-217)
T2 construct: extracellular domain; 131H allotype; Position 131 is the customary mature-protein numbering; also called FcyR2A (131H)
T2 sequence (looked up): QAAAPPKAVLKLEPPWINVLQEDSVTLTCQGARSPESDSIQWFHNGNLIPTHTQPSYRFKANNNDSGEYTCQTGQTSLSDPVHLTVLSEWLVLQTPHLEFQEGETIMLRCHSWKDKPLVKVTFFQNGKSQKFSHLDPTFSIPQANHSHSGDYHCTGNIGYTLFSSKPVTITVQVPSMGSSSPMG

T3: human FcγR2A 131R allotype (recombinant, extracellular domain only) (human, UniProt P12318 34-217)
T3 construct: extracellular domain; 131R allotype; Position 131 is the customary mature-protein numbering; also called FcyR2A (131R)
T3 sequence (looked up): T2 sequence (looked up) with H134R

B1: Parental (Clone 19 VH and VL) (antibody, V domains shown)
VH: QVQLQQSGAELVKPGASVKMSCKAFGYTFTTYPIEWMKQNHGKSLEWIGNFHPYNDDTKYNEKFKGKAKLTVEKSSTTVYLELSRLTSDDSAVYYCARENYGSHGGFVYWGQGTLVTVSG
VL: ENVLTQSPAIMSASPGEKVTMTCRASSSVISSYLHWYQQKSGASPKLWIYSTSNLASGVPDRFSGSGSGTSYSLTISSVEAEDAATYYCQQYNSYPLTFGAGTKLEIK
notes: The antibodies were captured through anti-human IgG and the variants were made on human IgG1 kappa, so it is probably a chimeric human IgG1 kappa
B2: humCL19v3 (antibody, human IgG1, V domains shown)
VH: QVQLVQSGAEVKKPGASVKVSCKAFGYTFTTYPIEWMRQAPGKGLEWIGNFHPYNDDTKYNEKFQGRVTLTVDKSSTTVYMELSSLRSEDTAVYYCARENYGSHGGFVYWGQGTLVTVSS
VL: ENVLTQSPATLSLSPGERATLSCRASSSVISSYLHWYQQKPGQAPRLLIYSTSNLASGIPARFSGSGSGTDYTLTISSLEPEDFAVYYCQQYNSYPLTFGGGTKLEIK
notes: hu-VH1 + hu-VL3; human IgG1 kappa isotype
B3: humCL19v4 (antibody, human IgG1, V domains shown)
VH: B2 VH
VL: B2 VL with L55R, S57T
notes: hu-VH1 + hu-VL4; human IgG1 kappa isotype
B4: humCL19v7 (antibody, human IgG1, V domains shown)
VH: B2 VH with M37V, I48M, L70M, S76T
VL: B2 VL
notes: hu-VH2 + hu-VL3; human IgG1 kappa isotype
B5: humCL19v8 (antibody, human IgG1, V domains shown)
VH: B2 VH with M37V, I48M, L70M, S76T
VL: B2 VL with L55R, S57T
notes: hu-VH2 + hu-VL4; human IgG1 kappa isotype
B6: humCL19v6 (antibody, human IgG1, V domains shown)
VH: B2 VH with M37V, I48M, L70M, S76T
VL: ENQLTQSPSSLSASVGDRVTITCRASSSVISSYLHWYQQKPGKAPKLLIYSTSNLASGVPSRFSGSGSGTDYTLTISSLQPEDFATYYCQQYRGYPLTFGGGTKLEIK
notes: hu-VH2 + hu-VL2; human IgG1 kappa isotype
B7: humCL19v2 (antibody, human IgG1, V domains shown)
VH: B2 VH
VL: B6 VL
notes: hu-VH1 + hu-VL2; human IgG1 kappa isotype
B8: humCL19v5 (antibody, human IgG1, V domains shown)
VH: B2 VH with M37V, I48M, L70M, S76T
VL: B6 VL with R93N, G94S
notes: hu-VH2 + hu-VL1; human IgG1 kappa isotype
B9: humCL19v9 (antibody, human IgG1, V domains shown)
VH: QVQLVQSGSELKKPGASVKVSCKAFGYTFTTYPIEWMRQAPGQGLEWIGNFHPYNDDTKYNEGFTGRFVLSVDKSSTTVYLQISSLKAEDTAVYYCARENYGSHGGFVYWGQGTLVTVSS
VL: B6 VL with R93N, G94S
notes: hu-VH3 + hu-VL1; human IgG1 kappa isotype
B10: humCL19v10 (antibody, human IgG1, V domains shown)
VH: B9 VH
VL: B6 VL
notes: hu-VH3 + hu-VL2; human IgG1 kappa isotype
B11: humCL19v13 (antibody, human IgG1, V domains shown)
VH: B9 VH with M37V, I48M, L70F, S76V
VL: B6 VL with R93N, G94S
notes: hu-VH4 + hu-VL1; human IgG1 kappa isotype
B12: humCL19v14 (antibody, human IgG1, V domains shown)
VH: B9 VH with M37V, I48M, L70F, S76V
VL: B6 VL
notes: hu-VH4 + hu-VL2; human IgG1 kappa isotype
B13: humCL19v11 (antibody, human IgG1, V domains shown)
VH: B9 VH
VL: B2 VL
notes: hu-VH3 + hu-VL3; human IgG1 kappa isotype
B14: humCL19v12 (antibody, human IgG1, V domains shown)
VH: B9 VH
VL: B2 VL with L55R, S57T
notes: hu-VH3 + hu-VL4; human IgG1 kappa isotype
B15: humCL19v16 (antibody, human IgG1, V domains shown)
VH: B9 VH with M37V, I48M, L70F, S76V
VL: B2 VL with L55R, S57T
notes: hu-VH4 + hu-VL4; human IgG1 kappa isotype
B16: humCL19v1 hIgG1 L235N (antibody)
VH: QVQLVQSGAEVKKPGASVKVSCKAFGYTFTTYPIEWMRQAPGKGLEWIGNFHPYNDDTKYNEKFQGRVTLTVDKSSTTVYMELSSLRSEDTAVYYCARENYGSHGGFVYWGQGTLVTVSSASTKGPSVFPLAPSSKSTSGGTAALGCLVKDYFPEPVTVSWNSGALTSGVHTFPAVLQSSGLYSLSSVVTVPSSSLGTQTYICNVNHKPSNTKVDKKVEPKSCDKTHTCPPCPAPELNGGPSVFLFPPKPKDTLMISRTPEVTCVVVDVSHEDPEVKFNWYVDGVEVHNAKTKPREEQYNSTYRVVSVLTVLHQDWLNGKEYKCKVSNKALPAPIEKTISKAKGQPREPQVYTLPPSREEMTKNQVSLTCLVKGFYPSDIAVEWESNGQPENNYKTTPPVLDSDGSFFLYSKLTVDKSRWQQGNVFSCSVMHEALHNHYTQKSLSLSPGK
VL: ENQLTQSPSSLSASVGDRVTITCRASSSVISSYLHWYQQKPGKAPKLLIYSTSNLASGVPSRFSGSGSGTDYTLTISSLQPEDFATYYCQQYNSYPLTFGGGTKLEIKRTVAAPSVFIFPPSDEQLKSGTASVVCLLNNFYPREAKVQWKVDNALQSGNSQESVTEQDSKDSTYSLSSTLTLSKADYEKHKVYACEVTHQGLSSPVTKSFNRGEC
B17: humCL19v1 P238D (antibody, human IgG1, kappa)
heavy: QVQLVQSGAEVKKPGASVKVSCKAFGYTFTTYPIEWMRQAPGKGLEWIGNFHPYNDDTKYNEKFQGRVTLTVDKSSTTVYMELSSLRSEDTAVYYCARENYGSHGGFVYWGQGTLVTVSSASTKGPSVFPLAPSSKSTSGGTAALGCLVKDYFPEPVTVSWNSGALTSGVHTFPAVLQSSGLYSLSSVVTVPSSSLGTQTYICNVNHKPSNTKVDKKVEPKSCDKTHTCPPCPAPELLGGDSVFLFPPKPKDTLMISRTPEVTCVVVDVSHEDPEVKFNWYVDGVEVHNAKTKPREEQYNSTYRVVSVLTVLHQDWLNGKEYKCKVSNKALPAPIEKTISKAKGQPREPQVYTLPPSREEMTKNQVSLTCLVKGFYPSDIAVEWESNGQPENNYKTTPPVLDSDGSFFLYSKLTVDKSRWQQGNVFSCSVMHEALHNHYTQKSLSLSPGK
light: B16 VL
notes: That makes them humCL19v1 P238D; also called hIgG1 P238D; P238D mutated humCL19v1
B18: humCL19v1 hIgG1 L235H (antibody)
VH: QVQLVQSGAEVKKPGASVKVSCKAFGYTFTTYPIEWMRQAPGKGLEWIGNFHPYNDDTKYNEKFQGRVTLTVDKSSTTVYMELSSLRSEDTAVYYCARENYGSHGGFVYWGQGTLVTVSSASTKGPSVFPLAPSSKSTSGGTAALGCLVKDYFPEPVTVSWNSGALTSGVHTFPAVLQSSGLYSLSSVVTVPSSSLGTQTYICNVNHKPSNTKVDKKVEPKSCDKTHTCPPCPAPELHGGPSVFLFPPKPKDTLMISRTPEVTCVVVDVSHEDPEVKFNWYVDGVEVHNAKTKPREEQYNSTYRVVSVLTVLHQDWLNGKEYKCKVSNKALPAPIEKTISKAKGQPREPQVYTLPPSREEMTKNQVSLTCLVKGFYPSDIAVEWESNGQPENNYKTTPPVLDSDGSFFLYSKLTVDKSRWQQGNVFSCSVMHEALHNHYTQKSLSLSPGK
VL: B16 VL
B19: humCL19v1 hIgG1 S239I (antibody)
VH: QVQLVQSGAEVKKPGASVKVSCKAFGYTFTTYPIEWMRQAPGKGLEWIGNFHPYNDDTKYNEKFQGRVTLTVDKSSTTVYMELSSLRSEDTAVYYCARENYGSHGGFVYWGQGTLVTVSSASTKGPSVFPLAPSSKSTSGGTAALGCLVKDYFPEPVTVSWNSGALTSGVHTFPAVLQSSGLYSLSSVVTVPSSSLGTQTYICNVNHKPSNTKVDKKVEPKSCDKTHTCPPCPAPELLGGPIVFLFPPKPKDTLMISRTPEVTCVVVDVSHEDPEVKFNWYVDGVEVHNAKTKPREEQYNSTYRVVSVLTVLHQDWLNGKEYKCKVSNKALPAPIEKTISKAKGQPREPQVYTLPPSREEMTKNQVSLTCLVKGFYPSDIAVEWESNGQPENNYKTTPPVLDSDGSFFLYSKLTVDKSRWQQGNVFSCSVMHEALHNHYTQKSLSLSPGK
VL: B16 VL
B20: humCL19v1 hIgG1 S239V (antibody)
VH: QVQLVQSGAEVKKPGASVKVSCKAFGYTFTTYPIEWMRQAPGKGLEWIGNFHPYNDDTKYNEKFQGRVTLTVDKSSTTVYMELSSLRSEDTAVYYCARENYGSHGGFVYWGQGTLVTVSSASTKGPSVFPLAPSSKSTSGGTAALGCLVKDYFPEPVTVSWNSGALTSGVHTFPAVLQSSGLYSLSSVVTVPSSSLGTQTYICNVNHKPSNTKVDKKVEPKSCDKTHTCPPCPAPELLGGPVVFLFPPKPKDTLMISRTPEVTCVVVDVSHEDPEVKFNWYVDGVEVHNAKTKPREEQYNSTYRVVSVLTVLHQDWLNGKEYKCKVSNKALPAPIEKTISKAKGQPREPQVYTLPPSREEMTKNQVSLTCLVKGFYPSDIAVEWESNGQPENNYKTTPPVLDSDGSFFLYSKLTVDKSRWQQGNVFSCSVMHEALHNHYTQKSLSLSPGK
VL: B16 VL
B21: humCL19v1 hIgG1 V266M (antibody)
VH: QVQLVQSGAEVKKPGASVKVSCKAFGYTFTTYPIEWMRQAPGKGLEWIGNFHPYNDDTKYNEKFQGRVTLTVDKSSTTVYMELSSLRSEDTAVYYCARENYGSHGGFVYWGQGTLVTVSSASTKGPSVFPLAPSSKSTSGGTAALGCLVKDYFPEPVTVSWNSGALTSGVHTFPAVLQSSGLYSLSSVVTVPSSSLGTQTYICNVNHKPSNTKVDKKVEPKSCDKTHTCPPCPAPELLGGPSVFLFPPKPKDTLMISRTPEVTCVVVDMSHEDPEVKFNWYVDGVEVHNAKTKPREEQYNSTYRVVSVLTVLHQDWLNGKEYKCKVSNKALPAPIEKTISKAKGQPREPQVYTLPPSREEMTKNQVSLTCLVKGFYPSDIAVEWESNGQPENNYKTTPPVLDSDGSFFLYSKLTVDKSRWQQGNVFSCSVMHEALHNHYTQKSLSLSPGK
VL: B16 VL
B22: humCL19v1 hIgG1 Y300N (antibody)
VH: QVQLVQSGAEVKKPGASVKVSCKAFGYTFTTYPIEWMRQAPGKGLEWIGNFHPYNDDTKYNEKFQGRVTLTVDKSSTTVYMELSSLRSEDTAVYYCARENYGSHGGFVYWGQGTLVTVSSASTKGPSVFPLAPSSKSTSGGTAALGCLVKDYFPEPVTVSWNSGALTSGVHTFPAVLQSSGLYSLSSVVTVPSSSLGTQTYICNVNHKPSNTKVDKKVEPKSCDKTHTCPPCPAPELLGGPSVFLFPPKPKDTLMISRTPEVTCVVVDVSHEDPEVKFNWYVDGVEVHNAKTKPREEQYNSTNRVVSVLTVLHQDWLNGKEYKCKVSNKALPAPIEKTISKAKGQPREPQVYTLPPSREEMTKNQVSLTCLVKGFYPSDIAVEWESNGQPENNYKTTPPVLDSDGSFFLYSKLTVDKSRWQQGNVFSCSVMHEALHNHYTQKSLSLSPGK
VL: B16 VL

Columns and labels:
[1] = target: T4, soluble cynomolgus macaque PD-1 extracellular domain (cynomolgus macaque, UniProt B0LAJ3 25-170); experiment: SPR (Biacore 8K), 37 C, antibody captured via anti-human IgG, soluble PD-1 ECD as analyte, single cycle kinetics
T4 construct: also called Cyno PD-1; cynomolgus PD-1
T4 sequence (B0LAJ3 entry or part of it limits assumed): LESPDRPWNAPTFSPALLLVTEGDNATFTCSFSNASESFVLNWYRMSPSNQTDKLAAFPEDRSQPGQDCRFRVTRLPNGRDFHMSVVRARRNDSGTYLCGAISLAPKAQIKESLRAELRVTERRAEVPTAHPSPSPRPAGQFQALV
Method: (§1) Antibody variants were produced consisting of all the potential combinations of humanized VH and VL domains. […] The binding affinity and kinetics of the humanized antibody variants to human or cynomolgus PD-1 were determined by surface plasmon resonance (SPR) using the Biacore 8 K (Cytiva). Human antibody capture kit (Cytiva) was used to coat a Series S CM5 Sensor Chip (Cytiva) with polyclonal anti-human IgG. Anti-PD-1 antibody was then captured onto the biosensor surface and an isotype control antibody captured in the reference channel. Various concentrations of monomeric soluble human PD-1 extracellular domain or soluble cynomolgus macaque PD-1 extracellular domain were then injected over the immobilized antibodies in the buffer 10 mM Hepes, 150 mM NaCl, 0.005% v/v Surfactant P20, pH 7.4 (HBS-P) at 37° C., in a single cycle kinetics analysis. Association and dissociation rates were fitted using BiaEvaluation Software (Cytiva) after reference and blank subtractions, and dissociation constants were calculated.

[2] = target: T5, monomeric soluble human PD-1 extracellular domain (human, UniProt Q15116 25-170); experiment: as above
T5 construct: extracellular domain; also called recombinant human PD-1 extracellular domain
T5 sequence (Q15116 25-170): as the sequence (B0LAJ3 entry or part of it limits assumed) above, with E2D, A10P, L19V, A35T, R75Q, A144T counted along it
Method: as §1

[3] = target: T1, human FcγR2B (recombinant, …); experiment: SPR (Biacore 8K), 37 C, steady state; antibody captured on immobilised human PD-1 ECD, FcR ECD as analyte
Method: (§2) The interactions were assessed by surface plasmon resonance using a Biacore 8 K with the recombinantly expressed FcRs (extracellular domains only) as analyte. Briefly, recombinant human PD-1 extracellular domain was covalently immobilized to both flow cells of all channels of a CM5 Series S sensor chip using the GE Healthcare Amine coupling kit. […] Steady state affinity analysis was then performed by injecting varying concentrations of FcR and measuring equilibrium binding. Double referencing was used (subtracting the signal in the reference Fc1 and also subtracting the signal from a blank zero concentration injection). KD values were calculated from the Langmuir curves (plotting equilibrium binding against analyte concentration to determine the concentration required for half maximal binding).

[4] = target: T2, human FcγR2A 131H allotype …; experiment: as above
Method: as §2

[5] = target: T3, human FcγR2A 131R allotype …; experiment: as above
Method: as §2

Binder | Kd [1] [nM] | Kd [2] [nM] | Kd [3] [nM] | Kd [4] [nM] | Kd [5] [nM]
B1 | 318 | 53.7 |  |  | 
B2 | 236 | 37.3 |  |  | 
B3 | 199 | 32 |  |  | 
B4 | 565 | 64.5 |  |  | 
B5 | 369 | 58.9 |  |  | 
B6 | 15200 | 2000 |  |  | 
B7 |  | 1010 |  |  | 
B8 | 440 | 57.6 |  |  | 
B9 | 251 | 44.8 |  |  | 
B10 |  | 670 |  |  | 
B11 |  | 160 |  |  | 
B12 |  | 80200 |  |  | 
B13 | 249 | 52.5 |  |  | 
B14 | 253 | 47.5 |  |  | 
B15 | 896 | 161 |  |  | 
B16 |  |  | 59 | 13.5 | 12.3
B17 |  |  | 2.79 | 90.3 | 17.5
B18 |  |  | 13.6 | 3.96 | 3.67
B19 |  |  | 3.99 | 3.38 | 1.65
B20 |  |  | 3.6 | 3.13 | 1.62
B21 |  |  | 1.54 | 6.28 | 0.58
B22 |  |  | 6.32 | 2.83 | 2.22

From patent US20230312743A1 (MIROBIO, published 2023)
